Measured values reported in patent US20170202908A1 (ASAHI GROUP, published 2017).

Biological target: T1, Fc-mUmod, fusion protein of the mouse Umod protein (positions 1-616 of SEQ ID NO: 8) and the Fc domain of … (mouse; human, UniProt Q91X17 25-616)
T1 construct: Secreted from HEK293T cells, purified on protein A and immobilized on a 96-well plate; Positions 1-616 are the cloned range and start at the initiator Met; also called uromodulin; not shown: Fc domain of human IgG1
Experiment: whole bacterial cells on plate-immobilized Fc-mUmod; bound cells counted by 16S rRNA real-time PCR, hIgG background subtracted
Procedure: Next, the Fc-mUmod protein and hIgG as a control Fc protein were respectively diluted with PBS so as to result in a concentration of 5 μg/ml, and the resultants were applied to a 96-well plate (50 μl per well) and immobilized at 4° C. overnight. Each well was washed three times with 200 μl of PBS. Then, a 1% BSA/PBS solution (200 μl) was applied thereto for blocking at room temperature for 2 hours. Then, the blocking solution was removed. Thereafter, bacterial cells of each test lactic acid bacterium, which had been suspended in PBS so as to result in a concentration of 10⁶ cells/50 μl, were applied thereto (50 μl per well) and incubated at room temperature for 2 hours. Each well was washed five times with 200 μl of PBS and then PBS was completely removed.
DNA was extracted from bacterial cells bound to each plate using NucleoSpin™ Tissue (Takara) in accordance with the provided protocol. Real-time PCR was performed using the extracted DNA as a template and universal primers targeting the 16S rRNA gene (F: 5′-[…]-3′ (SEQ ID NO: 12), R: 5′-[…]-3′ (SEQ ID NO: 13)). The number of bacterial cells bound to Fc-mUmod and the number of bacterial cells bound to hIgG were quantitatively determined in accordance with the protocol provided with SYBR™ Premix Ex Taq™ II (Tli RNaseH Plus) (Takara).

T1 sequence (Q91X17 25-616): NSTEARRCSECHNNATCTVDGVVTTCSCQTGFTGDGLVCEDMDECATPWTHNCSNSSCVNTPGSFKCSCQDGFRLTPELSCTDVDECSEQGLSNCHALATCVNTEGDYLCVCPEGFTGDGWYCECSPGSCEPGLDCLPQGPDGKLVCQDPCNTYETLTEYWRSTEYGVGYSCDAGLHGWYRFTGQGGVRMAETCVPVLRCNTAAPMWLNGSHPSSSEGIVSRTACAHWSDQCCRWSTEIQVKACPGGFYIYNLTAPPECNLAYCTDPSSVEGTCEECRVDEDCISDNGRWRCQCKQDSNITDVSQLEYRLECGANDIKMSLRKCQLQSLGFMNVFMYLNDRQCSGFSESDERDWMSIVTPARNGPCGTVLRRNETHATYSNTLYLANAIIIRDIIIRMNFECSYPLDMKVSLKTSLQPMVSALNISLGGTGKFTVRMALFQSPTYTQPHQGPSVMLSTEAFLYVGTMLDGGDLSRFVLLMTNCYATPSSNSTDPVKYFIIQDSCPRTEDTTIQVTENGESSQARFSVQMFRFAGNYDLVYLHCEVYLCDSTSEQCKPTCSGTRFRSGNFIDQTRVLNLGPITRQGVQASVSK

B1: S-layer protein A (SlpA protein) of the Lactobacillus acidophilus strain L-92 (other)
chain: AVSTVSAATTINASSSAINTNTNAKYDVDVTPSVSAVAANTANNTPAIAGNLTGTISASYNGKTYTANLKADTENATITAAGSTTAVKPAELAAGVAYTVTVNDVSFNFGSENAGKTVTLGSANSNVKFTGTNSDNQTETNVSTLKVKLDQNGVASLTNVSIANVYAINTTDNSNVNFYDVTSGATVTNGAVSVNADNQGQVNVANVVAAINSKYFAAQYADKKLNTRTANTEDAIKAALKDQKIDVNSVGYFKAPHTFTVNVKATSNTNGKSATLPVVVTVPNVAEPTVASVSKRIMHNAYYYDKDAKRVGTDSVKRYNSVSVLPNTTTINGKTYYQVVENGKAVDKYINAANIDGTKRTLKHNAYVYASSKKRANKVVLKKGEVVTTYGASYTFKNGQKYYKIGDNTDKTYVKVANFR
notes: In the assays SlpA stood on the surface of whole L-92 bacterial cells, not as an isolated protein; also called surface layer protein (SlpA)
binding result: binds
